# Measurements from paper PMC11960969, “Mdga2 deficiency leads to an aberrant activation of BDNF/TrkB signaling that underlies autism-relevant synaptic and behavioral changes in mice” (PLOS Biology, 2025).
# B1: sp¦Q3UHB1¦NT5D3_MOUSE (protein, UniProt Q3UHB1 1-546, looked up)
# 5'-nucleotidase …: MATVAAAARGAGARAAAGLRSCGGAVARERPRSGCARRLCSAPAAPAAVDMKSYLWARYHEAKRSTDELVPSIMNNLLNPDAIFSNNEMSLSDIEIYGFDYDYTLVFYSKHLHTLIFNAARDLLINEHRYPVEIRKYEYDPSFAIRGLHYDVQRAVLMKIDAFHYIQMGTVYRGLSVVPDEEVIDMYEGSHVPLEQMSDFYGKSSHGNTMKQFMDIFSLPEMTLLSCVNEHFLKNNIDYEPVHLYKDVKDSIRDVHIKGIMYRAIEADIEKYICYADQTRAVLAKLAAHGKKMFLITNSPSSFVDKGMRYIVGKDWRDLFDVVIVQAEKPNFFNDKRRPFRKVNEKGVLLWDKIHKLQKGQIYKQGNLYEFLKLTGWRGSKVLYFGDHIYSDLADLTLKHGWRTGAIIPELRSELRIMNTEQYIQTMTWLQTLTGLLEQMQVHRDAESQLVLQEWKKERKEMREMTKSFFNAQFGSLFRTDQNPTYFLRRLSRFADIYMASLSCLLNYDVHHTFYPRRTPLQHELPAWSDSPSAFKAPLLQEAQAK
# B2: sp¦Q6NWV3¦IF122_MOUSE (protein, UniProt Q6NWV3 1-1182, looked up)
# Intraflagellar transport …: MRAVLTWRDKAEQCIYDLAFKPDGTQLILAAGNRLLVYDTSDGTLLQPLKGHKDTVYCVAYAKDGKRFASGSADKSIIIWTSKLEGILKYTHNDSIQCVSYNPVTHQLASCSSSDFGLWSPEQKSVSKHKSSSKITCCSWTNDGQYLALGMANGIISIRNKNGEEKVKIERPGGSLSPIWSICWNPSREEHNDILAVADWGQKLSFYQLSGKQIGKDRPLNFDPCCISYFTKGEYILVGGSDKQVSLFTKDGVRLGTVGEQNSWVWTCRVKPDSNYVVVGCQDGTISFYQLIFSTVHGLYKDRYAYRDSMTDVIVQHLITEQKVRIKCRELVKKIAIYKNRLAIQLPEKILIYELYSEDSTDMHYRVKEKIVKKFECNLLVVCADHIILCQEKRLQCLSFSGVKEREWQMESLIRYIKVIGGPAGREGLLVGLKNGQILKIFVDNLFAIVLLKQATAVRCLDMSASRNKLAVVDENDTCLVYDIHTKELLFQEPNANSVAWNTQCEDMLCFSGGGYLNIKASTFPVHQQKLQGFVVGYNGSKIFCLHVFSMSAVEVPQSAPMYQYLDRKMFKEAYQIACLGVTDADWRELAMEALEGLEFETARKAFTRVQDLRYLELISSIEERKKRGETNNDLFLADVFSYQGKFHEAAKLYKRSGHENLALDMYTDLCMFEYAKDFLGSGDPKETKMLITKQADWARNINEPKAAVEMYISAGEHAKAIEISGSHGWVDMLIDIARKLDKAEREPLLMCACYFKKLDSPGYAAETYLKIGDLKSLVQLYVDTKRWDEAFALGEKHPEFKDDVYVPYAQWLAENDRFEEAQKAFHKAGRQGEAVRVLEQLTHNAVVESRFNDAAYYYWMLSMQCLDMAQDPAQKDAMLDKFHHFQHLAELYHGYQTIHRYTEEPFSFDLPETLFNISKFLLHSLTKATPLGISKVNTLFTLAKQSKALGAYKLARHAYDKLRGLQIPARIQKSIELGTLTIRSKPFHDSEELVPLCYRCSTNNPLLNNLGNVCINCRQPFIFSASSYEVLHLVEFYLEEGITDEEAVALIDLEAPRHKREGKWRETSSNNSQTLKLDETMDSIGEDDPFTAKLSFEQGSSEFVPVVVNRSVLRSMSRRDVLIKRWPPPLQWQYFRSLLPDASITMCPSCFQMFHSEDYELLVLQHACCPYCRRRIDDTGP
# B3: sp¦P0C7L0¦WIPF3_MOUSE (protein, UniProt P0C7L0 1-485, looked up)
# WAS/WASL-interacting protein …: MPVPPPPPPPPPPPPPPPPPLGAPPPPPLGAPPPPPPPGPPVSTDTPSLRKPDLKGRSALLADIQQGTRLRKVTQINDRSAPQIEGSKGTSKEGGAAGSNARGGNTPPALGDLFAGGFPVLRPAGQRDVSGGKSGQGPGSRAPSPRLPIKAISGPLPAPASPRLGNASETHSSARPVPPRPSVPAPPPPTPPPPPPPPLPPASPIKAQLVSPPAPPTKVNPSVVPPPLPCAPPLPPPPPTPPPLPPASALSDKAVRPQLAPLHLPPIPPPLPLLPPCGYPGLHSEPNSPAQEVREPPAPPPPPPPPPPPPLPTYASCSSRTAVAPPPLPGANNSGSETPPPLPPKSPSFQTQKALPTPPGAPGPQAILQKKRRGPGTSGGKLNPPPAPPARSPTTELSSKSQQPGGQLRNGGQHAIDDFESKFTFHSMEDFPPPDEYKPCQKIYPSKVPRSRTPGSWLQAEAAGQSSDDIKSRNSQLSLKALPVR
# B4: sp¦O35449¦PRRT1_MOUSE (protein, UniProt O35449 1-306, looked up)
# Proline-rich transmembrane …: MSSEKSGLPDSVPHTSPPPYNAPQPPAEPPIPPPQTAPSSHHHHHHHYHQSGTATLPRLGAGGLASAAASAQRGPSSSATLPRPPHHAPPGPAAGAPPPGCATLPRMPPDPYLQETRFEGPLPPPPPAAAAPPPPAPAPTAQAPGFVVPTHAGAVGTLPLGGYVAPGYPLQLQPCTAYVPVYPVGTPYAGGTPGGPGVTSTLPPPPQGPGLALLEPRRPPHDYMPIAVLTTICCFWPTGIIAIFKAVQVRTALARGDLVSAEIASREARNFSFISLAVGIAAMVLCTILTVVIIIAAQHHENYWDP
# B5: sp¦Q8K0L9¦ZBT20_MOUSE (protein, UniProt Q8K0L9 1-741, looked up)
# Zinc finger and BTB …: MLERKKPKTAENQKASEENEITQPGGSSAKPALPCLNFEAVLSPAPALIHSTHSLTNSHAHTGSSDCDISCKGMTERIHSINLHNFSNSVLETLNEQRNRGHFCDVTVRIHGSMLRAHRCVLAAGSPFFQDKLLLGYSDIEIPSVVSVQSVQKLIDFMYSGVLRVSQSEALQILTAASILQIKTVIDECTRIVSQNVGDVFPGIQDSGQDTPRGTPESGTSGQSSDTESGYLQSHPQHSVDRIYSALYACSMQNGSGERSFYSGAVVSHHETALGLPRDHHMEDPSWITRIHERSQQMERYLSTTPETTHCRKQPRPVRIQTLVGNIHIKQEMEDDYDYYGQQRVQILERNESEECTEDTDQAEGTESEPKGESFDSGVSSSIGTEPDSVEQQFGAAAPRDGQAEPAQPEQAAEAPAESSAQPNQLEPGASSPERSNESEMDNTVITVSNSSDKGVLQQPSVNTSIGQPLPSTQLYLRQTETLTSNLRMPLTLTSNTQVIGTAGNTYLPALFTTQPAGSGPKPFLFSLPQPLTGQQTQFVTVSQPGLSTFTAQLPAPQPLASSAGHSTASGQGDKKPYECTLCNKTFTAKQNYVKHMFVHTGEKPHQCSICWRSFSLKDYLIKHMVTHTGVRAYQCSICNKRFTQKSSLNVHMRLHRGEKSYECYICKKKFSHKTLLERHVALHSASNGTPPAGTPPGARAGPPGVVACTEGTTYVCSVCPAKFDQIEQFNDHMRMHVSDG
# B6: sp¦A3KGB4¦TBC8B_MOUSE (protein, UniProt A3KGB4 1-1114, looked up)
# TBC1 domain family member 8B: MWLKPEEVLLKNALKLWLMERSNEYFVLQRRRGYGEEGGGGLTGLLVGTLDSVLDSTAKVAPFRILHQTPDSQVYLSIACGANREEITKHWDWLEQNIMKTLSVFDSNEDITNFVQGKIRGLIAEEGKQSFAKEDDPEKFREALLKFEKSFGLPEQEKLVTYYSCSYWRGRVPCQGWLYLSTNFLSFYSFLLGSEIKLIISWDAISKLEKTSTVILTESIHVCSQGENHYFSMFLHINETYLLMEQLANYAIKRLFDKETFDNDPVLDDPLQITKRGLEYRAHSEQFKAFFRLPKEETLKEVHECFLWVPFSHFSSHGKMCISENYICFASQDGNLCSVIIPLREVLAIDKTDDSNRSVIISIKGKTAFRFSELKDFEQLVAKLRLKCRAASTQDDVSTEVAVSSDSTGPSENFEEQPLTCPKECSKTVNTEALMTVFHPQNLENLDSKMLKEKMKEQSWNILFSECGRGVSMFRTKKTRDLVVRGIPETLRGELWMLFSGAVNDMATNPGYYAEVVEQSLGTSNLATEEIERDLRRSLPEHPAFQSDTGISALRRVLTAYAYRNPKIGYCQAMNILTSVLLLYAKEEEAFWLLVAVCERMLPDYFNRRIIGALVDQAVFEELIRDHLPQLTDHMTDMTFFSSVSLSWFLTLFISVLPIESAVNVVDCFFYDGIKAILQLGLAILDYNLDKLLTCKDDAEAVTALNRFFDNVINKDSPLPSNVQQGSNISNEKSDHTKVDITDLIKESNEKYGSIRYEDIHSMRCRNRLYVIQTLEETTKQNVLRVVSQDVKMSLQELDELYVIFKKELFISCYWYLSCPGLKHHDPSLPYLEQYQIDCQQFRVLYHLLSPWAHSANRDSLALWTFRLLDENSDCLINFKEFSSAIDIMYNGSFTDKLKLLFKLHIPPAYTEVMSKTSSKGDELSTEELLYFSQLQVSKPADEKETESGRNSPEKGKGKIDIQAYLSQWQDELLKKEETIKDLPRMNQSQFIQFSKTLYNLFHEDPEEESLYQAIAIVTNLLLRMEEVGRKLHSPASSASTARDSGPSEGNAESSVKKDLPSPREEHQWSFAFEQILASLLNEPALVRFFERPLDLKAKLENAKSSQLRSRTKM
# B7: sp¦Q9JJR9¦NRIP3_MOUSE (protein, UniProt Q9JJR9 1-240, looked up)
# Nuclear receptor-interacting …: MFYSGLLTEGGRKETDMREAASLRQQRRMKQAVQFIHKDSADLLPLDGLKKLGSSKDTQPHNILQRRLMETNLSKLRSTRVPWASKTNKFNQAKSEGLKKCEDEDMILVSCQCAGKDVKALVDTGCQYNLISSACVDRLGLKDHVKSHKHEGEKLSLPRHLKVVGQIEHLMITVGSLRLDCQAAVVDDNEKSLSLGLQTLRSLKCIINLDKHRLIVGKTDKEEIPFVETVSVNDDNTSEA
# Tested on: hippocampal proteins
# Assay: DIA quantification proteomics, hippocampus of Mdga2+/- vs WT mice
# Set-up: species or system mouse
# Settings: Mdga2+/- vs WT mouse hippocampus (HET-HIP-VS-WT-HIP); S3 Table, downregulated DEPs; SE, pvalue and adj_pvalue in own columns c3-c5
# Protocol: The hippocampus of 1.5–2-month-old Mdga2^ +/− male mice and their WT littermate controls was collected and sent to the BGI company for DIA quantification proteomics and data analysis. Briefly, samples were lysed and sonicated. After centrifugation, the supernatant was taken for quantification. Equal amounts of proteins (100 μg) per sample were subjected to trypsin enzymatic hydrolysis. After dryness, 10 μg enzymatic peptides per sample were separated by high-pH fractionation into a total of 10 fractions using high-performance liquid chromatography (HPLC) and freeze-dried. Data-dependent acquisition (DDA) fractions and DIA samples were analyzed by nano-LC–MS/MS. DDA data was identified by Andromeda search engine within MaxQuant. Identified results were used by Spectronaut^TM for spectral library construction. For DIA data, Spectronaut^TM used the constructed spectral library information to complete deconvolution and extraction, and used the mProphet algorithm to complete analytical quality control for obtaining reliable quantitative results. The mass spectrometry proteomics data have been deposited to the ProteomeXchange Consortium via the PRIDE [62] partner repository with the dataset identifier PXD050810. DEPs between comparison groups were identified based on the quantitative results, using the fold change >1.1 and p-value <0.05 as the criteria. After retrieval from the UniProtKB database, identified DEPs were processed for GO analysis by using DAVID (https://david.ncifcrf.gov/home.jsp) and Metascape database (https://metascape.org/gp/index.html).
row,Molecule,log2FC
1,B1,-1.2606
2,B2,-1.266
3,B3,-1.266
4,B4,-1.273
5,B5,-1.342
6,B6,-1.359
7,B7,-1.366

# Same assay, conditions: regulation class of the protein, HET-HIP-VS-WT-HIP; S3 Table, downregulated DEPs
row,Molecule,Class
1,B1,Down
2,B2,Down
3,B3,Down
4,B4,Down
5,B5,Down
6,B6,Down
7,B7,Down
